Source: publication PMC9445081, “Structural basis for recognition of N-formyl peptides as pathogen-associated molecular patterns” (Nature Communications, 2022)
Where no end group is shown, it is not given here. The star is where a group is joined. For = O=C*

Columns and labels:
FPR1 [1] = conditions: non-formyl MLF versus fMLF; cited from earlier work
FPR1 [2] = conditions: cited from earlier work
FPR1 F102A = target: T1, FPR1 F102A (human, UniProt P21462 1-350, F102A); assay: cell-based or functional assay
T1 sequence (looked up): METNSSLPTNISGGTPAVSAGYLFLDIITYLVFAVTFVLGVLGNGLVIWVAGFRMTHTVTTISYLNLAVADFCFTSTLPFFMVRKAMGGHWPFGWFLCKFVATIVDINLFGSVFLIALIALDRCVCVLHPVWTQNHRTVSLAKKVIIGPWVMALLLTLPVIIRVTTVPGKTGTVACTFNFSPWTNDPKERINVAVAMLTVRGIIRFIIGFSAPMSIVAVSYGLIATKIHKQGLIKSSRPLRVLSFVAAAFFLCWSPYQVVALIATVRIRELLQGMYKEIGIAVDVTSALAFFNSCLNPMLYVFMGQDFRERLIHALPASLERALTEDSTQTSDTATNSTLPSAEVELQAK

FPR1 L109A = target: T2, FPR1 L109A (human, UniProt P21462 1-350, L109A); assay: cell-based or functional assay
T2 sequence (looked up): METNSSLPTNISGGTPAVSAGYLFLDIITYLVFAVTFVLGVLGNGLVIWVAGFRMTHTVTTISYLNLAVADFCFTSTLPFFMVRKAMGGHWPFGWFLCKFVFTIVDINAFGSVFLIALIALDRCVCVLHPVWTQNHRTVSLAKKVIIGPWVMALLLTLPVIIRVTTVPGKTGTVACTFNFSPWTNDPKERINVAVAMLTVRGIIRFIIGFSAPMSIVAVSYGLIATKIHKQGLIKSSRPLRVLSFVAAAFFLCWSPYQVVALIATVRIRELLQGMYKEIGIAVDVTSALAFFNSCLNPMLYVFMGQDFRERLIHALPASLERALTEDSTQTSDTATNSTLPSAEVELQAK

FPR1 F110A = target: T3, FPR1 F110A (human, UniProt P21462 1-350, F110A); assay: cell-based or functional assay
T3 sequence (looked up): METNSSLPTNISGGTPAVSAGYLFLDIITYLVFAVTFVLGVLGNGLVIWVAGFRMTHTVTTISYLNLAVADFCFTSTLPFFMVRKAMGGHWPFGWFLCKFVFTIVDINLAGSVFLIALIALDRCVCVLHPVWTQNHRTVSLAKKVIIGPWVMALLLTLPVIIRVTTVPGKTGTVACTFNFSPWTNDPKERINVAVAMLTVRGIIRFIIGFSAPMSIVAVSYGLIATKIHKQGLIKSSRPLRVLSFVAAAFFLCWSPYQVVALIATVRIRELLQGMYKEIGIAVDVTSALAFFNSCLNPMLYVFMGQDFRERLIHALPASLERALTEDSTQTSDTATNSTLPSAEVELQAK

FPR1 T265A = target: T4, FPR1 T265A (human, UniProt P21462 1-350, T265A); assay: cell-based or functional assay
T4 sequence (looked up): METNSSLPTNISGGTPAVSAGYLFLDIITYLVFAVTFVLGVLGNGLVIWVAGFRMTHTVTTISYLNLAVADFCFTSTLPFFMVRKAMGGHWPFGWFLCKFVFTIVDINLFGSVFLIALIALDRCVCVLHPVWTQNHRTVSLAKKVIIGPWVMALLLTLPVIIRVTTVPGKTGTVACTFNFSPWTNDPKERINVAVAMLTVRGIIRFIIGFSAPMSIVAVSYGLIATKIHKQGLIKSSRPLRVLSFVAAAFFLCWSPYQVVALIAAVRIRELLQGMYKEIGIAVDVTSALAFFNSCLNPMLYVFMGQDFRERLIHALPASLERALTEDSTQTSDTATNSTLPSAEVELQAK

FPR1 V283A = target: T5, FPR1 V283A (human, UniProt P21462 1-350, V283A); assay: cell-based or functional assay
T5 sequence (looked up): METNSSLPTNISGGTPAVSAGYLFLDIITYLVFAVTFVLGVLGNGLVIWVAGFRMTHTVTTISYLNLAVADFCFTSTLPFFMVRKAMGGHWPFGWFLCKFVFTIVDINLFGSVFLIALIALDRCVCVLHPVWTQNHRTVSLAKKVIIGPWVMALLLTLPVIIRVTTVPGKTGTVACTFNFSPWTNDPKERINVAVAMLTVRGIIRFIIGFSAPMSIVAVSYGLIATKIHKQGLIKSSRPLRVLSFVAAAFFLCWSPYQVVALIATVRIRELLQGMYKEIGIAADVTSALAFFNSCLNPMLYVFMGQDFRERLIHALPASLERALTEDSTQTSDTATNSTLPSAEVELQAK

FPR1 F291A = target: T6, FPR1 F291A (human, UniProt P21462 1-350, F291A); assay: cell-based or functional assay
T6 sequence (looked up): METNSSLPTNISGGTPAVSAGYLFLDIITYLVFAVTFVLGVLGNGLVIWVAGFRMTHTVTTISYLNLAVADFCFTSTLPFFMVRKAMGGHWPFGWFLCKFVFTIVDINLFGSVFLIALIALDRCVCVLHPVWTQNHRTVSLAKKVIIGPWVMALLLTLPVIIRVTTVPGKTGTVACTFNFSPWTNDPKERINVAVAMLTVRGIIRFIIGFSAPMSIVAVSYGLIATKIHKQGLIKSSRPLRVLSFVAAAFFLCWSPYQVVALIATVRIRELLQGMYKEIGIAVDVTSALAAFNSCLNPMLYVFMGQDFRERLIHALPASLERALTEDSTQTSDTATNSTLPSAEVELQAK

[3] = target: T7, WT FPR1 expressed in HeLa cells (human, UniProt P21462 1-350); assay: cell-based or functional assay
T7 sequence (looked up): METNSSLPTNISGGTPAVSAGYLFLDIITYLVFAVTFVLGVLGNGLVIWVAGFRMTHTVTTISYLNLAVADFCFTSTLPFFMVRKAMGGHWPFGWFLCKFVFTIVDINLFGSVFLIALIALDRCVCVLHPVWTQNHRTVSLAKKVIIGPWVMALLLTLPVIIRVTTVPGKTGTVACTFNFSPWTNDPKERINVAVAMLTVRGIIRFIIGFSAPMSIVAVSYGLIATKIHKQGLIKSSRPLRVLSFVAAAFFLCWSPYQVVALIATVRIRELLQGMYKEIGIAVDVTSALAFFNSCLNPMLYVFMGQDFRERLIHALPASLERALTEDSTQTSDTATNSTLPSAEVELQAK

FPR1 F81A = target: T8, FPR1 F81A (human, UniProt P21462 1-350, F81A); assay: cell-based or functional assay
T8 sequence (looked up): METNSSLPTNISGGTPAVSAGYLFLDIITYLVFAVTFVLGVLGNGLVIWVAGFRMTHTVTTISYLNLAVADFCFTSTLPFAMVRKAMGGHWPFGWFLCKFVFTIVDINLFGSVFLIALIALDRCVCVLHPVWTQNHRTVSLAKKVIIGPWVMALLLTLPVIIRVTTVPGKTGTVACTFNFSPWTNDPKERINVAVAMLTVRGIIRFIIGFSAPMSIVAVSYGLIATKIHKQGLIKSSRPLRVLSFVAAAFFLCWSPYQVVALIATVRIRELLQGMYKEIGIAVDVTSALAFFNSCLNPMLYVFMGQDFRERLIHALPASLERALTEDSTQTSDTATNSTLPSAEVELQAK

[4] = target: T9, Gαi (α subunit of the Gi1 heterotrimer) (human, UniProt P63096 1-354); assay: cryo-EM structure; conditions: both partners purified
T9 construct: Gαi of the Gi1 heterotrimer, human cDNA; The same chain as the first chain of m4; source: Trichoplusia ni Hi5 insect cells (baculovirus), purified as part of the Gi1 heterotrimer (Ni-NTA)
T9 sequence (P63096 whole entry, one chain of several): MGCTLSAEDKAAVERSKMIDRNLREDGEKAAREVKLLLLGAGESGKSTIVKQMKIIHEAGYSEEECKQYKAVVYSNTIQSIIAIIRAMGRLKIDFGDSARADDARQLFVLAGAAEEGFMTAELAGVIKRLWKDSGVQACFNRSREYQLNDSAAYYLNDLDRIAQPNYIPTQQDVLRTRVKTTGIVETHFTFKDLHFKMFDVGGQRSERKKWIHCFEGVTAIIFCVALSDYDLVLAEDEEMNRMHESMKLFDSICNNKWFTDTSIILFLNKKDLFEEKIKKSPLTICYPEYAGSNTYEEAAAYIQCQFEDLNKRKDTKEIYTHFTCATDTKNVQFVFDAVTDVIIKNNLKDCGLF

## Met-Leu-Phe [MLF]
FPR1 [1]
  orders of magnitude less potent in FPR1 binding: 3 orders of magnitude

## tBoc-MLF
FPR1 [2]
  pharmacological property at FPR1: antagonist

## For-Met-Leu-Phe [fMet-Leu-Phe (fMLF)]
FPR1 F102A
  pEC50 of inhibition of forskolin-elevated cAMP, transfected HeLa cells: 8.5
FPR1 L109A
  pEC50 of inhibition of forskolin-elevated cAMP, transfected HeLa cells: 8.1
FPR1 F110A
  pEC50 of inhibition of forskolin-elevated cAMP, transfected HeLa cells: 8.6
FPR1 T265A
  pEC50 of inhibition of forskolin-elevated cAMP, transfected HeLa cells: 7.8
FPR1 V283A
  pEC50 of inhibition of forskolin-elevated cAMP, transfected HeLa cells: 8.8
FPR1 F291A
  pEC50 of inhibition of forskolin-elevated cAMP, transfected HeLa cells: 8.4
[3]
  pEC50 of inhibition of forskolin-elevated cAMP, transfected HeLa cells: 9.1
FPR1 F81A
  pEC50 of inhibition of forskolin-elevated cAMP, transfected HeLa cells: 8.1

B1: formyl peptide receptor 1 (FPR1), N-terminal FLAG tag and C-terminal 6 x His tag (receptor, human)
chain: METNSSLPTNISGGTPAVSAGYLFLDIITYLVFAVTFVLGVLGNGLVIWVAGFRMTHTVTTISYLNLAVADFCFTSTLPFFMVRKAMGGHWPFGWFLCKFVFTIVDINLFGSVFLIALIALDRCVCVLHPVWTQNHRTVSLAKKVIIGPWVMALLLTLPVIIRVTTVPGKTGTVACTFNFSPWTNDPKERINVAVAMLTVRGIIRFIIGFSAPMSIVAVSYGLIATKIHKQGLIKSSRPLRVLSFVAAAFFLCWSPYQVVALIATVRIRELLQGMYKEIGIAVDVTSALAFFNSCLNPMLYVFMGQDFRERLIHALPASLERALTEDSTQTSDTATNSTLPSAEVELQAK
notes: formyl peptide receptor 1, Homo sapiens, cDNA Gene ID 2357; Solubilised in DDM/CHS and exchanged to LMNG (later LMNG/GDN/CHS); also called human FPR1; source: Sf9 insect cells (baculovirus), purified (anti-FLAG M1 resin, SEC) in detergent; not shown: FLAG, N-terminal, kept
[4]
  binding result: binds
